{"source": "patent US20130196320A1", "about": "“METHOD FOR IMPROVING CLEAVAGE OF DNA BY ENDONUCLEASE SENSITIVE TO METHYLATION” (CELLECTIS, priority 2010, published 2013)", "molecules": {"B1": {"name": "XPC4: engineered meganuclease (SEQ ID NO: 2) designed to cleave xeroderma pigmentosum group C gene (XPC) (protein)", "chain": "MANTKYNEEFLLYLAGFVDGDGSIIAQIKPNQSHKFKHALQLTFKVTQKTQRRWFLDKLVDEIGVGYVQDSGSVSNYILSEIKPLHNFLTQLQPFLELKQKQANLALKIIEQLPSAKESPDKFLEVCTWVDQVAALNDSKTRKTTSETVRAVLDSLSEKKKSSPAAGGSDKYNQALSKYNQALSKYNQALSGGGGSNKKFLLYLAGFVDSDGSIIAQIKPNQSHKFKHQLSLAFQVTQKTQRRWFLDKLVDRIGVGYVRDRGSVSDYILSKIKPLHNFLTQLQPFLKLKQKQANLVLKIIEQLPSAKESPDKFLEVCTWVDQVAALNDSKTRKTTSETVRAVLDSLSEKKKSSP"}, "B2": {"name": "ADCY9: engineered meganuclease (SEQ ID NO: 3) designed to cleave adenylate cyclase 9 gene (protein)", "chain": "MANTKYNEEFLLYLAGFVDGDGSIIAQIKPNQSYKFKHQLSLTFRVTQKTQRRWFLDKLVDEIGVGYVRDSGSVSNYDLSEIKPLHNFLTQLQPFLELKQKQANLVLKIIEQLPSAKESPDKFLEVCTWVDQVAALNDSKTRKTTSETVRAVLDSLSEKKKSSPAAGGSDKYNQALSKYNQALSKYNQALSGGGGSNKKFLLYLAGFVDSDGSIIAQIKPDQSYKFKHQLGLTFQVTQKTQRRWFLDKLVDRIGVGYVRDRGSVSDYILSEIKPLHNFLTQLQPFLKLKQKQANLVLKIIEQLPSAKESPDKFLEVCTWVDQVAALNDSKTRKTTSETVRAVLDSLSEKKKSSP"}, "B3": {"name": "I-CreI: wild-type I-CreI meganuclease (… homing endonuclease), SEQ ID NO: 1, recombinant Cterm His-tag (protein, listed as Chlamydomonas reinhardtii)", "chain": "MNTKYNKEFLLYLAGFVDGDGSIIAQIKPNQSYKFKHQLSLTFQVTQKTQRRWFLDKLVDEIGVGYVRDRGSVSDYILSEIKPLHNFLTQLQPFLKLKQKQANLVLKIIEQLPSAKESPDKFLEVCTWVDQIAALNDSKTRKTTSETVRAVLDSLSEKKKSSP", "modifications": "C-terminal His-tag"}}, "key": {"[1]": {"tested_on": "XPC4 endogenous locus in 293H cells", "test": "Gene targeting induced by XPC4 meganuclease at its endogenous locus, PCR on cellular clones", "assay_type": "cell-based, human", "settings": "for targeted events, % of the transfected cells: XPC4 meganuclease + repair matrix, n=2", "procedure": "(§1) FIG. 11: XPC4 meganuclease efficiency is impaired by DNA methylation in vivo. 293H cells were co-transfected with 3 μg of XPC4 meganuclease expressing vector or empty vector and 2 μg of DNA repair matrix vector in presence or absence of DNA methylation inhibitor (5-aza-2′deoxycytidine). 480 individual cellular clones were analyzed in each condition for the presence of targeted events using specific PCR amplification.\nCell culture as well as general transfection conditions were described in “material and methods” section of part b) above. For this assay, 293H cells were co-transfected with 3 μg of XPC4 meganuclease expressing vector or empty vector and 2 μg of DNA repair matrix. The DNA repair matrix consists of a left and right arms corresponding to isogenic sequences of 1 kb located on both sides of the meganuclease recognition site. These two homology arms are separated by a heterologous fragment of 29 bp (sequence: […], SEQ ID NO: 64). Two days post-transfection, cells were replated in 10 cm dish. Two weeks later, individual clones were picked and subsequently amplified in 96 wells plates for 3 days. 480 individual cellular clones were then analyzed per condition. DNA extraction was performed with the ZR-96 genomic DNA kit (Zymo research) according to the supplier's protocol. The detection of targeted DNA matrix integrations was performed by specific PCR amplification using the primers: XPC4_F4: 5′-[…]-3′ (SEQ ID NO: 41) (located within the 29 bp of heterologous sequence, i.e. SEQ ID NO: 64) and XPC4_R4: 5′-[…]-3′ (located on the genomic sequence outside of the homology) (SEQ ID NO: 42)."}, "[2]": {"tested_on": "ADCY9 endogenous locus in 293H cells", "test": "Meganuclease-induced gene targeting assay, ADCY9 locus", "assay_type": "cell-based, human", "settings": "for targeted events, % of the transfected cells: ADCY9 meganuclease + repair matrix, n=2", "procedure": "as §1, with “FIG. 14: ADCY9” for “FIG. 11: XPC4”, “with 5” for “with 3”\nCell culture as well as general transfection conditions were described in Example 4. For this assay, 293H cells were co-transfected with 5 μg of ADCY9 meganuclease expressing vector and 2 μg of DNA repair matrix. The DNA repair matrix consists of a left and right arms corresponding to isogenic sequences of 1 kb located on both sides of the meganuclease recognition site. These two homology arms are separated by a heterologous fragment of 29 bp (sequence: […], SEQ ID NO: 64). Two days post-transfection, cells were replated in 10 cm dish. Two weeks later, individual clones were picked and subsequently amplified in 96 wells plate for 3 days. 480 individual cellular clones were then analyzed per condition. DNA extraction was performed with the ZR-96 genomic DNA kit (Zymo research) according to the supplier's protocol. The detection of targeted DNA matrix integrations was performed by specific PCR amplification using the primers ADCY9_F4: 5′-[…]-3′ (specific to the 29 bp of heterologous sequence) (SEQ ID NO: 50) and ADCY9_R4: 5′-[…]-3′ (specific to a genomic sequence located outside of the homology arm) (SEQ ID NO: 51)."}, "C1221 DNA target": {"biological_target": "C1221 DNA target", "test": "In vitro binding assay, fluorescence anisotropy of fluorescein-labeled C1221 duplex", "settings": "read-out: [I-CreI]50, apparent dissociation constant", "procedure": "FIG. 1: Spectrofluorimetric titration of fluorescein-labeled C1221 by I-CreI. 50 nM C1221, containing either 0 or 4 methylated CG on both strands, was incubated with increasing concentrations of I-CreI (from 0 to 1.5 μM) in binding buffer (10 mM Tris-HCl, 150 mM NaCl, 10 mM CaCl2, 10 mM DTT, pH8) at 25° C. After 30 minutes incubation, the fluorescence anisotropy of the mixture was recorded and then plotted as a function of I-CreI concentration.\nFluorescein labeled C1221 oligonucleotides were synthesized and HPLC-purified by Eurogentec. […] C1221 duplex and fluorescein final concentrations were assessed by spectrophotometry using their respective extinction coefficients ε260nm=62900 M^−1 cm^−1 and ε495nm=83000 M^−1 cm^−1. […]\nTo investigate the binding of I-CreI to C1221 duplex, 50 nM of C1221 duplex was incubated with increasing concentrations of I-CreI (from 0 to 1.5 μM) in binding buffer (10 mM Tris-HCl, 150 mM NaCl, 10 mM CaCl2, 10 mM DTT, pH8) at 25° C. After 30 minutes incubation, the fluorescence anisotropy of the mixture was recorded with a Pherastar Plus (BMG Labtech) operating in fluorescence polarization end point mode with excitation and emission wavelengths set to 495 and 520 nm respectively. […] [I-CreI]50 is defined as the concentration of 1-CreI needed to reach 50% of the final fluorescence anisotropy."}, "[3]": {"settings": "absence of meganuclease, with 5-aza-2′deoxycytidine treatment"}, "[4]": {"settings": "absence of 5-aza-2′deoxycytidine"}, "[5]": {"settings": "with 5-aza-2′deoxycytidine (0.2 μM) vs without"}}, "note": "Where two headings read alike, the source gives them in different places."}
{"molecule": "Nc1ncn([C@H]2C[C@H](O)[C@@H](CO)O2)c(=O)n1", "note": "[5-aza-2′deoxycytidine, reference compound]", "values": [{"measurement": "targeted events", "setting": "[1]; [3]", "result": "no targeted events could be detected"}, {"measurement": "targeted events", "setting": "[2]; [3]", "result": "no targeted events could be detected"}]}
{"molecule": "B1", "values": [{"measurement": "targeted events, % of the transfected cells", "setting": "[1]; 5-aza-2′deoxycytidine (0.2 μM)", "result": "12.5%±0.26"}, {"measurement": "targeted events, % of the transfected cells", "setting": "[1]; [4]", "result": "1.05%±0.34"}, {"measurement": "increase of targeted event frequency", "setting": "[1]; [5]", "result": 12, "unit": "fold"}]}
{"molecule": "B2", "values": [{"measurement": "targeted events, % of the transfected cells", "setting": "[2]; 5-aza-2′deoxycytidine (0.2 μM)", "result": "3.37%±0.66"}, {"measurement": "targeted events, % of the transfected cells", "setting": "[2]; [4]", "result": "0.70%±0.14"}, {"measurement": "increase of targeted event frequency", "setting": "[2]; [5]", "result": 4.8, "unit": "fold"}]}
{"molecule": "B3", "values": [{"measurement": "Kd", "setting": "C1221 DNA target; fully methylated C1221 (4 methylated CG on both strands)", "result": "~1000", "unit": "nM"}, {"measurement": "Kd", "setting": "C1221 DNA target; unmethylated C1221", "result": 30, "unit": "nM"}]}
